The results in this text go back to US20250154231A1.

Experiment in all cases: cell-based or functional assay
In test [1] the target is SARS-CoV-2 Omicron BA.1 spike (S) protein, pseudovirus construct (SARS-CoV-2) (UniProt P0DTC2).
In test [2] the target is SARS-CoV-2 Omicron BA.1.1 spike (S) protein, pseudovirus construct (SARS-CoV-2) (UniProt P0DTC2).
In test [3] the target is SARS-CoV-2 Omicron BA.2 spike (S) protein, pseudovirus construct (SARS-CoV-2) (UniProt P0DTC2).
Test [4] addresses SARS-CoV-2 Omicron BA.3 spike (S) protein, pseudovirus construct (SARS-CoV-2) (UniProt P0DTC2).
For test [5], the target named is SARS-CoV-2 Victoria spike (S) protein (SARS-CoV-2) (UniProt P0DTC2).
Test [6] has as its target SARS-CoV-2 Alpha spike (S) protein (SARS-CoV-2) (UniProt P0DTC2).
In test [7] the target is SARS-CoV-2 Beta spike (S) protein (SARS-CoV-2) (UniProt P0DTC2).
Test [8] has as its target SARS-CoV-2 Delta spike (S) protein (SARS-CoV-2) (UniProt P0DTC2).
Test [9] concerns the target SARS-CoV-2 Gamma spike (S) protein (SARS-CoV-2) (UniProt P0DTC2).
In test [10] the target is SARS-CoV-2 Omicron BA.1 spike (S) protein of the live isolate (SARS-CoV-2) (UniProt P0DTC2).
In test [11] the target is SARS-CoV-2 Omicron BA.1.1 spike (S) protein (SARS-CoV-2) (UniProt P0DTC2).
Test [12] addresses SARS-CoV-2 Omicron BA.2 spike (S) protein (SARS-CoV-2) (UniProt P0DTC2).
Test [13] concerns the target SARS-CoV-2 spike (S) protein, Omicron BA.2 (SARS-CoV-2) (UniProt P0DTC2).
Test [14] addresses SARS-CoV-2 spike (S) protein, Omicron BA.2.3.20 (SARS-CoV-2) (UniProt P0DTC2).
The target of test [15] is SARS-CoV-2 spike (S) protein, Omicron BA.2.75 (SARS-CoV-2) (UniProt P0DTC2).
The target of test [16] is SARS-CoV-2 spike (S) protein, Omicron BA.2.75.2 (SARS-CoV-2) (UniProt P0DTC2).
Test [17] concerns the target SARS-CoV-2 spike (S) protein, Omicron BA.4.6 (SARS-CoV-2) (UniProt P0DTC2).
For test [18], the target named is SARS-CoV-2 spike (S) protein, Omicron BA.4/5 (SARS-CoV-2) (UniProt P0DTC2).
Test [19] concerns the target SARS-CoV-2 spike (S) protein, Omicron BJ.1 (SARS-CoV-2) (UniProt P0DTC2).
Test [20] deals with SARS-CoV-2 spike (S) protein, Victoria strain (SARS-CoV-2) (UniProt P0DTC2).
In test [21] the target is SARS-CoV-2 spike (S) protein, Omicron BA.1 (SARS-CoV-2) (UniProt P0DTC2).
The target of test [22] is SARS-CoV-2 spike (S) protein, Omicron BA.1.1 (SARS-CoV-2) (UniProt P0DTC2).
Test [23] has as its target SARS-CoV-2 spike (S) protein, Omicron BA.2 (SARS-CoV-2) (UniProt P0DTC2). This is another data set of the same source.
Test [24] concerns the target SARS-CoV-2 spike (S) protein, Omicron BA.3 (SARS-CoV-2) (UniProt P0DTC2).
Test [25] concerns the target SARS-CoV-2 spike (S) protein, Omicron BA.4.6 (SARS-CoV-2) (UniProt P0DTC2). The source holds these as a separate data set.
The target of test [26] is SARS-CoV-2 spike (S) protein, Omicron BA.4/5 (SARS-CoV-2) (UniProt P0DTC2). This is another data set of the same source.
In test [27] the target is SARS-CoV-2 spike (S) protein, Victoria strain (SARS-CoV-2) (UniProt P0DTC2). The source holds these as a separate data set.
In test [28] the target is SARS-CoV-2 spike (S) protein, Omicron BA.2.75 (SARS-CoV-2) (UniProt P0DTC2). This is another data set of the same source.

Like-named read-outs stand apart in the source and are kept apart here.

Chain of Known Antibody D (AZD8895) (VH): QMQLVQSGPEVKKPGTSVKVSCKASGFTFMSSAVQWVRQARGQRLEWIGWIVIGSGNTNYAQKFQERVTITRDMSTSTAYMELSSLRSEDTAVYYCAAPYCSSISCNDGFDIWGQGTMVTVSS
Chain of Known Antibody D (AZD8895) (VL): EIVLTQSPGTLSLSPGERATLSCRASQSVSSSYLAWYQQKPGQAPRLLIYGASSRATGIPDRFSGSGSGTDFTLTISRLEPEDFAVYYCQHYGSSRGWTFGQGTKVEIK

With Known Antibody A (REGN 10987), the IC50 (ug/ml), pseudovirus is more than 10 µg/mL in test [1]; more than 10 µg/mL in test [2]; 0.616 µg/mL in test [3]; more than 10 µg/mL in [4]; 0.002 µg/mL in test [5].
Consider Known Antibody B (REGN 10933), for which the IC50 (ug/ml), pseudovirus in test [1] was more than 10 µg/mL; in test [2] it was more than 10 µg/mL; in [3], more than 10 µg/mL; in test [4] it was more than 10 µg/mL; in test [5], 0.001 µg/mL.
In the case of Known Antibody H (ADG30), the IC50 (ug/ml), pseudovirus is more than 10 µg/mL in [1]; more than 10 µg/mL in [2]; more than 10 µg/mL in test [3]; more than 10 µg/mL in test [4]; 0.014 µg/mL in test [5].
For the substance Known Antibody K (S309), the IC50 (ug/ml), pseudovirus was found to be 0.094 µg/mL in test [1]; 0.138 µg/mL in test [2]; 0.638 µg/mL in test [3]; 0.228 µg/mL in test [4]; 0.587 µg/mL in test [5].
AZD7442 (antibody): the IC50, authentic virus neutralization came out at 7 ng/mL in test [6]; 0.012 µg/mL in [7]; 0.005 µg/mL in [8]; 6 ng/mL in [9]; 0.273 µg/mL in [10]; 3.82 µg/mL in test [11]. Moreover, the IC50, authentic virus neutralization in test [12] came out at 0.052 µg/mL; in test [5], 9 ng/mL.
On to Known Antibody J (Ly-CoV16), for which the IC50 (ug/ml), pseudovirus in test [1] was more than 10 µg/mL; in [2], more than 10 µg/mL; in [3], more than 10 µg/mL; in [4] it was more than 10 µg/mL; in test [5], 0.014 µg/mL.
As for “AZD7442 (a combination of AZD8895 and AZD1061)”, the IC50, pseudoviral neutralization in test [13] was 8 ng/mL; in test [14], 0.025 µg/mL; in test [15] it was 17 ng/mL; in [16] it was more than 10000 ng/mL; in [17], more than 10000 ng/mL; in test [18], 0.065 µg/mL. The results for the IC50, pseudoviral neutralization in test [19] and in test [20] were 2.73 µg/mL and 1 ng/mL, respectively.
Turning to Known Antibody D (AZD8895), the IC50 (ug/ml), pseudovirus in [1] is 0.246 µg/mL; in [2] it was 0.1 µg/mL; in [3], 1.33 µg/mL; in [4] it was more than 10 µg/mL; in [5], 0.001 µg/mL.
For Known Antibody G (ADG20), in that order: 0.348 µg/mL, 0.253 µg/mL, more than 10 µg/mL, more than 10 µg/mL and 0.003 µg/mL.
AZD7442: the IC50, pseudoviral neutralization in test [21] is 0.232 µg/mL; in test [22] it was 0.806 µg/mL; in [23], 8 ng/mL; in test [24] it was 0.065 µg/mL; in [25], more than 10 µg/mL; in test [26], 0.065 µg/mL. This substance showed an IC50, pseudoviral neutralization in [27] of 1 ng/mL. Besides, the pseudovirus neutralisation IC50 in [21] was 0.232 µg/mL; in [22] it was 0.806 µg/mL; in test [23] it was 8 ng/mL; in test [24], 0.065 µg/mL; in test [26], 0.065 µg/mL; in test [27], 1 ng/mL. This substance also came in with a pseudovirus neutralisation IC50 in [28] of 0.017 µg/mL.
As for ADG30 (antibody), the IC50, authentic virus neutralization is 16 ng/mL in [6]; 0.029 µg/mL in test [7]; 0.033 µg/mL in test [8]; 2 ng/mL in test [9]; more than 10 µg/mL in [10]; more than 10 µg/mL in [11]. The IC50, authentic virus neutralization in test [12] was more than 10 µg/mL; in test [5], 7 ng/mL. Also, the IC50, pseudoviral neutralization is more than 10 µg/mL in test [21]; more than 10 µg/mL in [22]; more than 10000 ng/mL in [23]; more than 10 µg/mL in test [24]; more than 10 µg/mL in [25]; more than 10 µg/mL in test [26]. In [27], the IC50, pseudoviral neutralization was determined as 14 ng/mL. Further, the pseudovirus neutralisation IC50 in test [21] is more than 10 µg/mL; in [22] it was more than 10 µg/mL; in [23], more than 10000 ng/mL; in test [24], more than 10 µg/mL; in test [26] it was more than 10 µg/mL; in test [27] it was 14 ng/mL. For the same substance, the pseudovirus neutralisation IC50 in test [28] was more than 10 µg/mL.
In the case of Known Antibody C (AZD1061), the IC50 (ug/ml), pseudovirus in [1] is 0.308 µg/mL; in test [2], more than 10 µg/mL; in test [3] it was 0.008 µg/mL; in test [4] it was 0.019 µg/mL; in test [5] it was 0.002 µg/mL.
With Known Antibody F (ADG10), the IC50 (ug/ml), pseudovirus in test [1] was more than 10 µg/mL; in test [2] it was more than 10 µg/mL; in test [3], more than 10 µg/mL; in test [4] it was more than 10 µg/mL; in test [5], 0.007 µg/mL.
LY-CoV1404 (bebtelovimab) (antibody): the IC50, pseudoviral neutralization in [13] was determined as 1 ng/mL; in [14] it was 0.018 µg/mL; in test [15], 2 ng/mL; in [16], 2 ng/mL; in test [17], 1 ng/mL; in test [18] it was 0.002 µg/mL. Moreover, the IC50, pseudoviral neutralization in [19] was more than 10 µg/mL; in test [20] it was 1 ng/mL.
On to Ly-CoV-555 (antibody), for which the IC50, authentic virus neutralization in test [6] is 9 ng/mL; in test [7] it was more than 10 µg/mL; in test [8] it was 8.31 µg/mL; in [9] it was more than 10000 ng/mL; in test [10], more than 10 µg/mL; in [11] it was more than 10 µg/mL. For the same substance, the IC50, authentic virus neutralization in [12] was more than 10 µg/mL; in [5] it was 6 ng/mL.
On to Known Antibody I (Ly-CoV-555), for which the IC50 (ug/ml), pseudovirus in [1] was more than 10 µg/mL; in test [2] it was more than 10 µg/mL; in test [3], more than 10 µg/mL; in test [4], more than 10 µg/mL; in test [5], 0.002 µg/mL.
